# What was measured:
# [1] = molecular target: papain from papaia latex (papaia (from papaia latex)) (UniProt P00784)
# [2] = molecular target: papain from papaia latex (papaia (from papaia latex)) (UniProt P00784); remark: listed apart in the source
# [3] = molecular target: TcCYS4-His-tag, recombinant cystatin TcCYS4 from Theobroma cacao (Theobroma cacao); assay: SEC; TcCYS4 at 20 uM in 100 mM phosphate buffer pH 6, 150 mM NaCl, treated at different temperatures for 10 min (all heat treatments), Superdex 75 5/150, LMW standards
# [4] = molecular target: papain from papaia latex (papaia (from papaia latex)) (UniProt P00784); remark: listed apart in the source
# [5] = molecular target: TcCYS4-His-tag, recombinant cystatin TcCYS4 from Theobroma cacao (Theobroma cacao); assay: SEC; as a2, samples treated in the range from 55 to 75°C for 10 min; 20 uM, 100 mM phosphate buffer pH 6, 150 mM NaCl, Superdex 75 5/150
# [6] = molecular target: papain from papaia latex (papaia (from papaia latex)) (UniProt P00784); remark: listed apart in the source
# [7] = molecular target: papain from papaia latex (papaia (from papaia latex)) (UniProt P00784); remark: listed apart in the source
# Chain of UniProt P00784 (P00784 134-345): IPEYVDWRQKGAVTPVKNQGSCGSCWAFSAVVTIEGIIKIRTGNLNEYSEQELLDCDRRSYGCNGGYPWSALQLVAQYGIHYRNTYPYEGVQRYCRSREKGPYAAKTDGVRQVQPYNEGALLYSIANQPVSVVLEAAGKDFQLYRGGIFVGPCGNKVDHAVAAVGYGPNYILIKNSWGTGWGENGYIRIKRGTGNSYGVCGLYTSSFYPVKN
substance,measurement,setting,value
recombinant cystatin TcCYS3 from Theobroma cacao (natural protein),papain inhibition rate after treatment of the cystatin for 10 min at temperatures up to 90°C,[1],100%
"TcCYS4-His-tag, recombinant cystatin TcCYS4 from Theobroma cacao (natural protein)","percentage of inhibition of papain at pH values of the reaction medium from 2 to 10.5 (20% at pH 3, 70% at pH 3.5, about 90% from pH 4 to 9, about 80% at pH 10.5)",[2],90%
same,stoichiometry N,[3],2
same,residual activity of papain with TcCYS4 treated at 65°C for 0 to 600 s (plateau after 300 s),[4],60%
same,stoichiometry N,[5],3
same,papain inhibitory activity after treatment of the cystatin for 10 min at different temperatures up to 90°C; 70% of activity at 65°C,[6],> 100%
recombinant cystatin TcCYS2 from Theobroma cacao (natural protein),papain inhibitory activity after treatment of the cystatin for 10 min at different temperatures up to 90°C; around 52% at 65°C,[7],65%

# From article PMC4382335
